Results published in US20210340516A1, “COMPOSITIONS CONTAINING ARGINASE 1 FOR THE TREATMENT OF NEUROVASCULAR AND RETINAL VASCULAR DISORDERS” (Augusta University Research Institute, Inc., priority 2020, published 2021).

Tests used:
[1] = system: primary rat retinal mixed neurons; assay: Primary retinal mixed neurons subjected to OGD/R, LDH release assay; conditions: 6 hours OGD and 18 hours reperfusion, ABH 100 μM at reoxygenation
Method: Retinas from ten pups were collected and washed twice with ice-cold 1×PBS. They were digested with 0.5% trypsin for 3-4 min at 37° C., followed by trypsin inactivation with the culture medium, DMEM/F12 (Gibco, Grand Island, N.Y.) plus 10% FBS and 1% Penicillin-Streptomycin (P/S) solution (Invitrogen, Grand Island, N.Y.). The retina tissue was mechanically dissociated by pipetting several times until cells were dispersed. Cells were then filtered through a 40 μm nylon-mesh filter, collected by centrifugation at 1000 rpm for 10 min, re-suspended in culture medium, and plated in 6 or 12 well-cell culture plates (Corning, Corning, N.Y.) coated with Poly-D-lysine hydrobromide (PDL, Sigma) at a density of 0.5×10^6 cells/mL. The plates were maintained in a humidified CO2 incubator at 37° C. and 5% CO2. At days 1, 2, and 3 in vitro (DIV), half of the medium was aspirated and replaced with Neurobasal A medium containing 1×B-27 (GIBCO), 1× glutaMAX (GIBCO) and 1% P/S. Experiments were conducted at DIV 6.

[2] = native enzyme, comparison; cited from earlier work
[3] = system: mouse model of acute retinal ischemia; conditions: intravitreal injection (Fouda 2018); cited from earlier work

In the case of N[C@@H](CCCCB(O)O)C(=O)O [ABH, 2(S)-amino-6-boronohexanoic acid, reference compound], the “cell death (LDH release)” value [1] is reported as “trend towards increased cell death”.

B1: native enzyme: native, non-PEGylated arginase, compared with PEG-A1 for half-life (protein, UniProt P05089 1-322, looked up)
Arginase-1: MSAKSRTIGIIGAPFSKGQPRGGVEEGPTVLRKAGLLEKLKEQECDVKDYGDLPFADIPNDSPFQIVKNPRSVGKASEQLAGKVAEVKKNGRISLVLGGDHSLAIGSISGHARVHPDLGVIWVDAHTDINTPLTTTSGNLHGQPVSFLLKELKGKIPDVPGFSWVTPCISAKDIVYIGLRDVDPGEHYILKTLGIKYFSMTEVDRLGIGKVMEETLSYLLGRKKRPIHLSFDVDGLDPSFTPATGTPVVGGLTYREGLYITEEIYKTGLLSGLDIMEVNPSLGKTPEEVTRTVNTAVAITLACFGLAREGNHKPIDYLNPPK
For B1, the half-life in vivo [2] is given as “a few minutes”.

B2: A1: arginase 1 given by intravitreal injection in an earlier study (Fouda 2018) (protein, UniProt P05089 1-322, looked up)
Arginase-1: MSAKSRTIGIIGAPFSKGQPRGGVEEGPTVLRKAGLLEKLKEQECDVKDYGDLPFADIPNDSPFQIVKNPRSVGKASEQLAGKVAEVKKNGRISLVLGGDHSLAIGSISGHARVHPDLGVIWVDAHTDINTPLTTTSGNLHGQPVSFLLKELKGKIPDVPGFSWVTPCISAKDIVYIGLRDVDPGEHYILKTLGIKYFSMTEVDRLGIGKVMEETLSYLLGRKKRPIHLSFDVDGLDPSFTPATGTPVVGGLTYREGLYITEEIYKTGLLSGLDIMEVNPSLGKTPEEVTRTVNTAVAITLACFGLAREGNHKPIDYLNPPK
For B2, the “neuroprotection in acute retinal ischemia” value [3] is given as “showed neuroprotection”.
